{
  "source": "paper PMC7835374",
  "about": "(Nature Communications, 2021)",
  "binders": {"B1": {"name": "3I14 IgG1 (wild type) (antibody, V domains shown)", "VH": "QVQLLESGGGVVQPGRSLRLSCAASGFTFSNYGMHWVRQAPGKGLEWVAIISFDGSKKYYANSVKGRSTISRDNSKNTLSLQMNSLGPEDTALYYCAKLPSPYYFDSRFVWVAASAFHFWGQGILVTVSS", "VL": "NFMLTQPPSASGTPGQRVTISCSGSSSNIGGNTVHWFQQLPGTAPKLLIYTNSLRPSGVPDRFSGSKSGTSASLAISGLQSEDEADYYCAAWDDSLNGQVFGGGTKLTVL", "notes": "copies: 2 + 2"}},
  "target": "recombinant full-length hemagglutinin H6 (A/Taiwan/2/2013) (Influenza A virus A/Taiwan/2/2013 (H6N1), strain)",
  "experiment": "BLI",
  "settings": "both partners purified",
  "data": [
    {"binder": "B1", "values": [
      {"measurement": "Kd", "value": 2.9, "unit": "nM"},
      {"measurement": "koff", "value": 0.000152, "unit": "s⁻¹"},
      {"measurement": "kon", "value": 51900, "unit": "M⁻¹ s⁻¹"}
    ]}
  ]
}
